# Test results published in patent publication US20080206254A1 (LIFE SCIENCES RESEARCH PARTNERS VZW, published 2008).
# Substitutions are numbered along the chain they refer to.
# T1: A2 domain residues 379-546 of FVIII with mutation R489A (human, UniProt P00451 398-565, 35S-methionine labelled)
# T1 construct: Read as one of four single mutants; see the note of m4; not shown: cmyc (9E10) tag
# T1 sequence: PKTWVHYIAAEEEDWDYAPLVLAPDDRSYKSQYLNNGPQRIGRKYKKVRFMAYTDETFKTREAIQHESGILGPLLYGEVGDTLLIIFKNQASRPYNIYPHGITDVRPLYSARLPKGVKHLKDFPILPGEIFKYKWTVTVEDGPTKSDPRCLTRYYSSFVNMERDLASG
# T2: A2 domain residues 379-546 of FVIII with mutation P492A (human, UniProt P00451 398-565, 35S-methionine labelled)
# T2 construct: Read as one of four single mutants; see the note of m4; not shown: cmyc (9E10) tag
# T2 sequence: T1 sequence with A111R, P114A
# T3: A2 domain residues 379-546 of FVIII with mutation R484A (human, UniProt P00451 398-565, 35S-methionine labelled)
# T3 construct: the text lists R484A; Y487A; not shown: cmyc (9E10) tag
# T3 sequence: T1 sequence with R106A, A111R
# T4: A2 domain residues 379-546 of FVIII with mutation Y487A (human, UniProt P00451 398-565, 35S-methionine labelled)
# T4 construct: Read as one of four single mutants; see the note of m4; not shown: cmyc (9E10) tag
# T4 sequence: T1 sequence with Y109A, A111R
# B1: human monoclonal antibody BOIIB2, produced by the cell line deposited under accession number LMBP 6422CB at the BCCM (antibody, V domains shown)
# VH: QVQLQESGPGLVKPSETLSLTCTVSGDSISDYYWSWIRQPPGKGLEWIGYFFYSGGSNYNPSLKSRVTMSVDTSKNQFSLKLGSVTAADTAVYYCARSQLRYYLDVWGQGTTVTVSS
# VL: EIVLTQSPGTLSLSPGERATLSCRASQSVDSNYLAWYQQKPGQAPRVVIYGASNRATGIPDRFSGSGSGTEFTLTISRLDPEDFAVYYCQQYGSFFGQGTRLEIK
# notes: VH4 (DP-71)/JH6c, VkappaIII/Jkappa5; also called BIIIB2
# Key:
# [1] = target: human Factor VIII (FVIII) (human) (UniProt P00451); experiment: cell-based or functional assay
# [2] = target: T1, A2 domain residues 379-546 of FVIII …; experiment: immunoprecipitation of 35S-labelled polypeptide on BOIIB2-Protein A Sepharose
# Description: (§1) For fragments of FVIII of less than 15 amino acids a tag sequence was added including ubiquitin and/or T7 for recognition by specific anti-tag antibodies, together with a complementary sequence of cysteines for S labeling. Polypeptide encoding FVIII fragments were produced in TNT coupled Reticulocyte Lysate Systems (Promega) according to manufacturer's instructions. Immunoprecipitation of transcribed genes was carried out as follows. Dilutions of samples containing specific antibodies were mixed to 40 μl of protein A Sepharose (Pharmacia) in 500 μl of an appropriate buffer and the mixture gently rocked for 1 hour at 4° C. Unbound antibodies are eliminated by a series of centrifugation and washings. The complex of antibody-protein A Sepharose is resuspended in 300 μl of buffer supplemented by 3 μl of in-vitro L-(³⁵S) methionine-labeled FVIII polypeptides for an incubation at 4° C. for 2 hours. Bound antigen/antibody complexes are eluted from the beads by boiling for 3 minutes in 30 μl of denaturing sample buffer and the radioactivity counted. A second aliquot is analyzed by SDS-PAGE and visualized by autoradiography. […] This system includes a combined transcription-translation provided by rabbit reticulocytes. […] Polypeptides are radiolabeled by addition of ³⁵S-methionine in the reaction mixture. BOIIB2 antibody is incubated with a Protein-A Sepharose, washed and resuspended before addition of one of the radiolabeled polypeptides. The suspension is incubated for 90 minutes at room temperature, washed and the labeled polypeptide eluted from Sepharose beads by addition of a sodium-dodecylsulfate containing buffer.
# [3] = target: T2, A2 domain residues 379-546 of FVIII …; experiment: as above
# Description: as §1
# [4] = target: T3, A2 domain residues 379-546 of FVIII …; experiment: as above
# Description: as §1
# [5] = target: T4, A2 domain residues 379-546 of FVIII …; experiment: as above
# Description: as §1
# [6] = target: human Factor VIII (FVIII) (human) (UniProt P00451); experiment: SPR (BIAcore), BOIIB2 immobilised on a CM5 chip, FVIII in HBS as analyte
# Chain of human Factor VIII (FVIII) (human) (P00451 20-2351): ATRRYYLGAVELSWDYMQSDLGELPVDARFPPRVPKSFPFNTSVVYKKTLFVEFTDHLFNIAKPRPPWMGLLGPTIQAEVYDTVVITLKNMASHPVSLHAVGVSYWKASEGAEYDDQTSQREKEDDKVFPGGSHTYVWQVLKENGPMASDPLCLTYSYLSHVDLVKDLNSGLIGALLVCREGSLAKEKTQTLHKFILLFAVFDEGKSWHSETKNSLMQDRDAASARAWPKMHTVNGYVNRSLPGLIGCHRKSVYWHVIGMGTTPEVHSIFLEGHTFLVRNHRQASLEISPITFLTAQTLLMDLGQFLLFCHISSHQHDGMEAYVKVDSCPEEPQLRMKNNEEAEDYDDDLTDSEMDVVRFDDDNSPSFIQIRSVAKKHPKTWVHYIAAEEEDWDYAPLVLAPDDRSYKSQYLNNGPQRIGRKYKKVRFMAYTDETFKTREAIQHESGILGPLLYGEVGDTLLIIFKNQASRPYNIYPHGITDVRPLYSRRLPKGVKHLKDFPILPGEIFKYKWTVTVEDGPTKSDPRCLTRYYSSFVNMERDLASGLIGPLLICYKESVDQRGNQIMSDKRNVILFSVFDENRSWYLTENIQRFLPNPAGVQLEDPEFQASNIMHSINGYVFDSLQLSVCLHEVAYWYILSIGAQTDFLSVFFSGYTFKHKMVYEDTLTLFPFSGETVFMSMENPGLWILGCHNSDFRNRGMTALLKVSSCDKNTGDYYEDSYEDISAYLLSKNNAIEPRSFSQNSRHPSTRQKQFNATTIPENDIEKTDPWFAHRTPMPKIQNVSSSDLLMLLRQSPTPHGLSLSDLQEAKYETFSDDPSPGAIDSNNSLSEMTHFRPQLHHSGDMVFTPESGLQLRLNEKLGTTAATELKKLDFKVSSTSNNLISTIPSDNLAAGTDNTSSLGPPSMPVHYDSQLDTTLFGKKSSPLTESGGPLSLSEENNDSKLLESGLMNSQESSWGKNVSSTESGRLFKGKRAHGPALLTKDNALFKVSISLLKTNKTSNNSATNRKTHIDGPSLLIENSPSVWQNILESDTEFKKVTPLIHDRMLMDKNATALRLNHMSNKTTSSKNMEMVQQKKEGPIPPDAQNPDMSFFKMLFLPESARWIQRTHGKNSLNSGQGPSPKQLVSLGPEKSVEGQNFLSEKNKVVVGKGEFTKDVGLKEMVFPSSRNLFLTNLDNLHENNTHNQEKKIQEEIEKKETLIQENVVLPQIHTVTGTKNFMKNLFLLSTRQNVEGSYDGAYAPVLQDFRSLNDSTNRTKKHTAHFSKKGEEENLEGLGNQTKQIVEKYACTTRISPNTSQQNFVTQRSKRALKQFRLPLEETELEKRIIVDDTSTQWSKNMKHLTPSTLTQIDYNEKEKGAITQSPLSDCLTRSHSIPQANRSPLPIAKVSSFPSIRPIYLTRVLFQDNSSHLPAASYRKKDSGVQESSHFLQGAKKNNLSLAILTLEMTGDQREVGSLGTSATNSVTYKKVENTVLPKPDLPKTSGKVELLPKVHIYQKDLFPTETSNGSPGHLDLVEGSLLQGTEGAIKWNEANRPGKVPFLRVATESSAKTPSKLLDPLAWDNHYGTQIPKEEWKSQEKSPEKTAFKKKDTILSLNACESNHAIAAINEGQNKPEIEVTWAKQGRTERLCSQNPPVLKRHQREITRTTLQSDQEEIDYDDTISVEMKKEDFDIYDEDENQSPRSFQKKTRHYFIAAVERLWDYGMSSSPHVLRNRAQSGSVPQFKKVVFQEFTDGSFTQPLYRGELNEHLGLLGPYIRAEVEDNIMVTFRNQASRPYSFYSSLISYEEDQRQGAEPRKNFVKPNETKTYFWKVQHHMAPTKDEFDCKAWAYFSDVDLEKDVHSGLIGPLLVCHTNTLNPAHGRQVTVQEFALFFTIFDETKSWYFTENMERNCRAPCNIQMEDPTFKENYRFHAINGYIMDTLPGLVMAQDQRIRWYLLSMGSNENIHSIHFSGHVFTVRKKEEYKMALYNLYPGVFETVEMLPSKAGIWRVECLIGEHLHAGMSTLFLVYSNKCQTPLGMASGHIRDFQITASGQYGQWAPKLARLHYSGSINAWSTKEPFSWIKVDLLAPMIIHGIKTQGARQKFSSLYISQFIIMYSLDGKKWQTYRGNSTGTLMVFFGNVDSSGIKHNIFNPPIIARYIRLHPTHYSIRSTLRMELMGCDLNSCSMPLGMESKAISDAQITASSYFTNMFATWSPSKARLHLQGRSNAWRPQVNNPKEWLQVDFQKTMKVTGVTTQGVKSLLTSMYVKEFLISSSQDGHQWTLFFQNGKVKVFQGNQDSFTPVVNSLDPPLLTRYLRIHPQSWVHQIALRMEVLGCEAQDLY
binder,measurement,setting,value
B1,Percentage of inhibition of FVIII in a chromogenic assay (thrombin-activated FVIII as cofactor of factor IXa in the conversion of factor X to factor Xa),[1],99%
same,binding result,[2],no binding
same,binding result,[3],no binding
same,binding result,[4],no binding
same,binding result,[5],no binding
same,koff,[6],1e-08 s⁻¹
